Sequences and labels used below:
B1: Far upstream element-binding protein 2, residues 142 to 214; numbered along this chain, Q92945 (parent)
chain: RTSMTEEYRVPDGMVGLIIGRGGEQINKIQQDSGCKVQISPDSGGLPERSVSLTGAPESVQKAKMMLDDIVSR

± gives the uncertainty stated by the source.

This data set covers variants of B1. Briefly: abundance fitness (aPCA) (normalised: wild type 0, dead -1); higher = more abundant; growth selection in yeast, the domain comes from the species named. To be noted: Homo sapiens.
RTSMTEEYRVPDGMVGLIIGRGGEQINKIQQDSGCKVQISPDSGGLPERSVSLTGAPESVQKAKMMLDFIVSR: the abundance fitness was -0.284 ± 0.092.

In the case of RTSMTEEYRVPDGMVGLIIGRGGEQINKIQQDSGCKVQISPDSGGLPERSVSLTGAPESVQKAKMMLDKIVSR, the abundance fitness was -0.043 ± 0.064. The result for RTSMTEEYRVPDGMVGLIIGRGGEQINKIQQDSGCKVQISPDSGGLPERSVSLTGAPESVQKAKMMLDMIVSR reads -0.13 ± 0.064.

As for RTSMTEEYRVPDGMVGLIIGRGGEQINKIQQDSGCKVQISPDSGGLPERSVSLTGAPESVQKAKMMLDNIVSR, the abundance fitness was -0.094 ± 0.066.

Turning to RTSMTEEYRVPDGMVGLIIGRGGEQINKIQQDSGCKVQISPDSGGLPERSVSLTGAPESVQKAKMMLDIIVSR, the abundance fitness was -0.262 ± 0.09. The result for RTSMTEEYRVPDGMVGLIIGRGGEQINKIQQDSGCKVQISPDSGGLPERSVSLTGAPESVQKAKMMLDAIVSR reads -0.019 ± 0.043. To RTSMTEEYRVPDGMVGLIIGRGGEQINKIQQDSGCKVQISPDSGGLPERSVSLTGAPESVQKAKMMLDLIVSR belongs -0.143 ± 0.051; to RTSMTEEYRVPDGMVGLIIGRGGEQINKIQQDSGCKVQISPDSGGLPERSVSLTGAPESVQKAKMMLDHIVSR, -0.165 ± 0.075; to RTSMTEEYRVPDGMVGLIIGRGGEQINKIQQDSGCKVQISPDSGGLPERSVSLTGAPESVQKAKMMLDPIVSR, -0.589 ± 0.058. Regarding RTSMTEEYRVPDGMVGLIIGRGGEQINKIQQDSGCKVQISPDSGGLPERSVSLTGAPESVQKAKMMLDQIVSR, the abundance fitness was -0.097 ± 0.061.

Turning to RTSMTEEYRVPDGMVGLIIGRGGEQINKIQQDSGCKVQISPDSGGLPERSVSLTGAPESVQKAKMMLDEIVSR, the abundance fitness is -0.002 ± 0.052. For RTSMTEEYRVPDGMVGLIIGRGGEQINKIQQDSGCKVQISPDSGGLPERSVSLTGAPESVQKAKMMLDVIVSR, the abundance fitness was -0.181 ± 0.046. In the case of RTSMTEEYRVPDGMVGLIIGRGGEQINKIQQDSGCKVQISPDSGGLPERSVSLTGAPESVQKAKMMLDWIVSR, the abundance fitness is -0.321 ± 0.057. The result for RTSMTEEYRVPDGMVGLIIGRGGEQINKIQQDSGCKVQISPDSGGLPERSVSLTGAPESVQKAKMMLDYIVSR reads -0.27 ± 0.09. To RTSMTEEYRVPDGMVGLIIGRGGEQINKIQQDSGCKVQISPDSGGLPERSVSLTGAPESVQKAKMMLDGIVSR belongs -0.057 ± 0.04; to RTSMTEEYRVPDGMVGLIIGRGGEQINKIQQDSGCKVQISPDSGGLPERSVSLTGAPESVQKAKMMLDCIVSR, -0.133 ± 0.071; to RTSMTEEYRVPDGMVGLIIGRGGEQINKIQQDSGCKVQISPDSGGLPERSVSLTGAPESVQKAKMMLDSIVSR, -0.122 ± 0.049. To RTSMTEEYRVPDGMVGLIIGRGGEQINKIQQDSGCKVQISPDSGGLPERSVSLTGAPESVQKAKMMLDTIVSR belongs -0.103 ± 0.051; to RTSMTEEYRVPDGMVGLIIGRGGEQINKIQQDSGCKVQISPDSGGLPERSVSLTGAPESVQKAKMMLDDIVSD, 0.021 ± 0.076. For RTSMTEEYRVPDGMVGLIIGRGGEQINKIQQDSGCKVQISPDSGGLPERSVSLTGAPESVQKAKMMLDDIVSC, the abundance fitness is 0.108 ± 0.083. Consider RTSMTEEYRVPDGMVGLIIGRGGEQINKIQQDSGCKVQISPDSGGLPERSVSLTGAPESVQKAKMMLDDIVSA, for which the abundance fitness was 0.034 ± 0.057. To RTSMTEEYRVPDGMVGLIIGRGGEQINKIQQDSGCKVQISPDSGGLPERSVSLTGAPESVQKAKMMLDDIVCR belongs -0.116 ± 0.067; to RTSMTEEYRVPDGMVGLIIGRGGEQINKIQQDSGCKVQISPDSGGLPERSVSLTGAPESVQKAKMMLDDIVGR, 0.118 ± 0.04; to RTSMTEEYRVPDGMVGLIIGRGGEQINKIQQDSGCKVQISPDSGGLPERSVSLTGAPESVQKAKMMLDDIVPR, -0.282 ± 0.056. The result for RTSMTEEYRVPDGMVGLIIGRGGEQINKIQQDSGCKVQISPDSGGLPERSVSLTGAPESVQKAKMMLDDIVNR reads 0.026 ± 0.076; that for RTSMTEEYRVPDGMVGLIIGRGGEQINKIQQDSGCKVQISPDSGGLPERSVSLTGAPESVQKAKMMLDDIVLR, -0.103 ± 0.043. On to RTSMTEEYRVPDGMVGLIIGRGGEQINKIQQDSGCKVQISPDSGGLPERSVSLTGAPESVQKAKMMLDDIVRR, for which the abundance fitness was 0.052 ± 0.039. To RTSMTEEYRVPDGMVGLIIGRGGEQINKIQQDSGCKVQISPDSGGLPERSVSLTGAPESVQKAKMMLDDIVMR belongs -0.024 ± 0.06.

As for RTSMTEEYRVPDGMVGLIIGRGGEQINKIQQDSGCKVQISPDSGGLPERSVSLTGAPESVQKAKMMLDDIVIR, the abundance fitness is -0.086 ± 0.069. The result for RTSMTEEYRVPDGMVGLIIGRGGEQINKIQQDSGCKVQISPDSGGLPERSVSLTGAPESVQKAKMMLDDIVWR reads -0.191 ± 0.052; that for RTSMTEEYRVPDGMVGLIIGRGGEQINKIQQDSGCKVQISPDSGGLPERSVSLTGAPESVQKAKMMLDDIVFR, -0.176 ± 0.075. As for RTSMTEEYRVPDGMVGLIIGRGGEQINKIQQDSGCKVQISPDSGGLPERSVSLTGAPESVQKAKMMLDDIVKR, the abundance fitness was -0.048 ± 0.062. The result for RTSMTEEYRVPDGMVGLIIGRGGEQINKIQQDSGCKVQISPDSGGLPERSVSLTGAPESVQKAKMMLDDIVER reads 0.007 ± 0.054. The result for RTSMTEEYRVPDGMVGLIIGRGGEQINKIQQDSGCKVQISPDSGGLPERSVSLTGAPESVQKAKMMLDDIVDR reads -0.032 ± 0.061. The result for RTSMTEEYRVPDGMVGLIIGRGGEQINKIQQDSGCKVQISPDSGGLPERSVSLTGAPESVQKAKMMLDDIVHR reads 0.019 ± 0.066. RTSMTEEYRVPDGMVGLIIGRGGEQINKIQQDSGCKVQISPDSGGLPERSVSLTGAPESVQKAKMMLDDIVYR: the abundance fitness was -0.079 ± 0.074. Consider RTSMTEEYRVPDGMVGLIIGRGGEQINKIQQDSGCKVQISPDSGGLPERSVSLTGAPESVQKAKMMLDDIVVR, for which the abundance fitness was -0.085 ± 0.045.

The record behind these values is the Human Domainome abundance scans (Beltran et al. 2025).
